Assay results from paper PMC4898720, “NrdR Transcription Regulation: Global Proteome Analysis and Its Role in Escherichia coli Viability and Virulence” (PLoS ONE, 2016).

Target: the molecule itself
Assay: SDS-PAGE of gel filtration fractions with peptide mass fingerprinting; SDS-PAGE of Superdex 200 fractions of un-refolded and refolded NrdR; ~40 kDa band identified by peptide mass fingerprinting; samples boiled 10 min with 5 mM DTT

B1: E. coli NrdR (natural protein, UniProt P0A8D0 1-149, looked up)
chain: MHCPFCFAVDTKVIDSRLVGEGSSVRRRRQCLVCNERFTTFEVAELVMPRVVKSNDVREPFNEEKLRSGMLRALEKRPVSSDDVEMAINHIKSQLRATGEREVPSKMIGNLVMEQLKKLDKVAYIRFASVYRSFEDIKEFGEEIARLED
notes: Transcriptional repressor NrdR of E. coli BW25113, full length ORF cloned between NdeI and XhoI of pET21b; also called EcNrdR; as prepared NrdR; source: E. coli BL21 (DE3), purified (HisTrap Ni column, Superdex 200 gel filtration)
  stoichiometry N: 2
